Measured values published in publication PMC8690526, “Expression, purification and characterisation of a human anti-CDK4 single-chain variable fragment antibody” (BMC Biotechnology, 2021).

Legend:
Settings in all cases: both partners purified
bovine serum albumin = target: T1, bovine serum albumin (Bos taurus, UniProt P02769); assay: ELISA; non-competitive; plates coated with rhCDK4 or irrelevant proteins (rhPHD2, rhCOX-2, BSA); purified AK2 10 μg/mL in 3% non-fat milk in PBST, 2 h; detection by anti-V5 tag antibody and HRP-conjugated IgG, A492
T1 construct: serum albumin, bovine; also called BSA

[1] = target: T2, recombinant human prolyl hydroxylase 2 (Homo sapiens, UniProt Q9GZT9); assay: as above
T2 construct: prolyl hydroxylase 2 (PHD2), human, recombinant; also called rhPHD2; PHD2

[2] = target: T3, recombinant human cyclin-dependent kinase 4 (Homo sapiens, UniProt P11802); assay: ELISA; non-competitive, affinity constant; plates coated with rhCDK4 at 8.0, 4.0, 2.0, 1.0 μg/mL; serial dilutions of AK2 (8.000-0.125 μg/mL); Kaff = (n − 1) / (n [Ab′] − [Ab]), n = [Ag] / [Ag′]; triplicates
T3 construct: cyclin-dependent kinase 4 (CDK4), human, recombinant; also called rhCDK4; CDK4
T3 sequence (P11802 whole entry): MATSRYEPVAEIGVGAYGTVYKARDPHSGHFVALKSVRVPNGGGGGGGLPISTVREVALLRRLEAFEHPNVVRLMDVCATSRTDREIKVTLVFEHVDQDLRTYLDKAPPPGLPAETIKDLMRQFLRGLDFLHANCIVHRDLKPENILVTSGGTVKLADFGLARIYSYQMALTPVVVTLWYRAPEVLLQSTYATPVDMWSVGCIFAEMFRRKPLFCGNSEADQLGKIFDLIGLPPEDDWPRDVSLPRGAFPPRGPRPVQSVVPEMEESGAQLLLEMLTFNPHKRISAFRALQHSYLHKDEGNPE

T1 sequence (P02769 25-607): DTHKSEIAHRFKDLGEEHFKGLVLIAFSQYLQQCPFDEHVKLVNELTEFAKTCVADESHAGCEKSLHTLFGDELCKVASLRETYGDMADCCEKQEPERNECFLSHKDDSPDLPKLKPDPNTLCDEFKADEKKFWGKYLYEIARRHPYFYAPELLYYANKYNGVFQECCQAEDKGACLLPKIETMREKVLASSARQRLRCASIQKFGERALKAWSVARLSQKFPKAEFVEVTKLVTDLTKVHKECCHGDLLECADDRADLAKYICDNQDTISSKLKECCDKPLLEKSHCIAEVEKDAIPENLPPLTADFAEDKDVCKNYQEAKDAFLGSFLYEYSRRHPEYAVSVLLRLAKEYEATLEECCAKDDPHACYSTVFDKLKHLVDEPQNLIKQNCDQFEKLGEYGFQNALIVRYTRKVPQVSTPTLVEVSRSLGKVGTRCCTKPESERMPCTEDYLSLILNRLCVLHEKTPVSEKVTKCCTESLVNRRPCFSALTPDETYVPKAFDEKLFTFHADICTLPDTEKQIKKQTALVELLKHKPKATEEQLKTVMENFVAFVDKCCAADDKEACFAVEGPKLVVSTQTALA
T2 sequence (Q9GZT9 whole entry): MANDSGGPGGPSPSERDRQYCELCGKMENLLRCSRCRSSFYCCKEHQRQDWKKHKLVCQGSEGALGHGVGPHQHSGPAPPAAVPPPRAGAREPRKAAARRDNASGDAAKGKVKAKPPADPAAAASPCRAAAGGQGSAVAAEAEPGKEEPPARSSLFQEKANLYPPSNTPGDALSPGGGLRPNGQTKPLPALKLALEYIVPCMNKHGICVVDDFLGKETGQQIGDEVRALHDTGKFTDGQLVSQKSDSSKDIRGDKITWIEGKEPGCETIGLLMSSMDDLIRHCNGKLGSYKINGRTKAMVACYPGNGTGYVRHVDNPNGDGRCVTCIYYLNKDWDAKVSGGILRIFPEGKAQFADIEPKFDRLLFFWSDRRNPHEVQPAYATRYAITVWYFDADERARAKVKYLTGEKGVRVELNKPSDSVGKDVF

B1: human anti-CDK4 single-chain variable fragment antibody AK2 (scFv, V domains shown)
VH: QVQLQESGGGLVQPGGSLRLSCAASGFTFSSYAMSWVRQAPGKGLEWVSAISGSGGSTYYADSVEGRFTISRDNSKNTLYLQMNSLRAEDTAVYYCARRLTGFDYWGQGTLVTVSS
VL: QSALTQPPSASGSPGQSVTISCTGTSSDVGGYNYVSWYQQHPGKAPKLMIYDVSKRPSGVSNRFSGSKSGNTASLTIFGLQAEDEADYYCSSYTSSSTLVFGGGTKLTVL
notes: AK2-VH; linker peptide between the variable regions; AK2-VL; A pelB leader stands upstream of AK2 in the phagemid; About 30 kD on SDS-PAGE; also called soluble AK2; purified AK2; source: E. coli HB2151 (AK2/HB2151), IPTG-induced, secreted into the culture supernatant; used as culture supernatant or purified (ammonium sulphate precipitation, Ni2+-NTA, PD-10 desalting); …
For B1, the binding result (bovine serum albumin) was “no binding (tested: 10 μg/mL AK2)”, the binding result [1] was “no binding (tested: 10 μg/mL AK2)” and the Ka [2] was 2.48e+07 M⁻¹.
